The results in this text go back to publication PMC9036094, “Antigen-derived peptides engage the ER stress sensor IRE1α to curb dendritic cell cross-presentation” (The Journal of Cell Biology, 2022).

Assay [1] relates to IRE1α (XBP1s, pIRE1α) in BMDCs. The assay can be described thus: IRE1α activation in BMDCs (immunoblot). The format is cell-based, mouse. As for the experimental part: Figure 1. Antigen pulsing of BMDCs activates IRE1α. (A) BMDCs were pulsed with ovalbumin (starting at 62.5 μg/ml and sequentially doubled) and analyzed by immunoblot (IB) for the indicated markers. (B) BMDCs were pulsed with ovalbumin (starting at 500 μg/ml and sequentially halved) or […] (1 μM), or stimulated with tunicamycin (1 μg/ml) or poly-I:C (25 μg/ml) for 4 h, and analyzed by IB. (C) BMDCs were pulsed with ovalbumin (500 μg/ml) for indicated time points and analyzed by IB. (D) BMDCs were pulsed for 4 h with ovalbumin or lysates derived from the indicated cell lines (500 μg/ml protein) and analyzed by IB. […] (F) Upon removal from bone marrow, total bone marrow cells were transfected with non-targeting control (NTC) or TAP1-targeting gRNAs, along with CRISPR/Cas9 delivery constructs. Cells were then subjected to standard BMDC-differentiation protocol, pulsed with ovalbumin (500 μg/ml) for 4 h, and analyzed by IB. All IB images are representative of at least two similar experiments, and molecular weights represent kD. Source data are available for this figure: SourceData F1.
For purification and differentiation of BMDCs, the femur and tibia bones of C57BL/6 mice were flushed with sterile PBS, and bone marrow cells were then cultured in RPMI1640 media as described above and further supplemented with […] β2-mercaptoethanol (Sigma-Aldrich), 20 ng/ml GM-CSF (BioLegend), and 10 ng/ml IL-4 (BioLegend) for 9 d, with media being replenished every 3 d. Where indicated, Flt3L-BMDCs were similarly generated using media supplemented with 200 ng/ml recombinant mouse Flt3L (PeproTech; [Brasel et al., 2000]). After 9 d of culture, BMDCs were routinely verified to be >90% CD11c^+ MHC-II^high by flow cytometry analysis.
Thapsigargin (Sigma-Aldrich) was used at 100 nM, tunicamycin (Sigma-Aldrich) was used at 5 μg/ml, MG132 (Sigma-Aldrich) was used at 5 μM, Amiloride (Sigma-Aldrich) was used at 10 μM, actinomycin D (Sigma-Aldrich) was used at 4 μg/ml, LPS (Sigma-Aldrich) was used at 10 μg/ml, and poly-I:C (Sigma-Aldrich) was used at 25 μg/ml. Ovalbumin (Sigma-Aldrich), EF-OVA (EndoFit; InvivoGen), […] peptide (Sigma-Aldrich), and human CD4-Fc fusion protein (generated in-house at Genentech) were dissolved in PBS prior to pulsing and used at indicated concentrations.
Cells were lysed in PBS solution supplemented with 1X radioimmunoprecipitation assay buffer (Millipore) and 2X Halt protease-phosphatase inhibitor cocktail (Thermo Fisher Scientific). Upon clearance, samples were analyzed by SDS-PAGE, electrotransferred to nitrocellulose membranes (Invitrogen), and blocked by 5% powdered milk in PBSt (PBS supplemented with 0.1% tween) solution. Development was conducted with ECL reagent (Thermo Fisher Scientific) and imaging was performed with the ChemiDoc ZRS+ imager (Bio-Rad). Antibodies used for Western blot analysis include IRE1α (3294, rabbit; Cell Signaling Technology), β-actin (5125, rabbit; Cell Signaling), GAPDH (97166, mouse; Cell Signaling), ATF6 (66563-1-Ig, mouse; ProteinTech), TAP1 (12341, rabbit; Cell Signaling), CHOP (2895, mouse; Cell Signaling), ATF4 (11815, rabbit; Cell Signaling), ovalbumin (P1-196, rabbit; Thermo Fisher Scientific), human Fc (ab977225, rabbit; Abcam), Myc tag (2272, rabbit; Cell Signaling), and biotin (5597, rabbit; Cell Signaling). IRE1α lumenal domain (mouse), XBP1s (rabbit), and pIRE1α (rabbit) antibodies were generated at Genentech. Secondary antibodies used were for mouse (715-035-150; The Jackson Laboratory) and rabbit (711-035-152; The Jackson Laboratory).
For orientation: A western blot detects proteins with antibodies after separation by electrophoresis.

A further assay deals with IRE1α LD-Fc. The assay can be described thus: Plate-based ovalbumin binding to IRE1α LD-Fc. On the set-up: species or system human. The note with it: LD-Fc 10 μg/ml, 2 h, room temperature; in words. As for the experimental part: For experiments testing ovalbumin binding, a human LD-Fc was used at indicated concentrations. LD-Fc is comprised of amino acids M1-D443 of IRE1α fused C-terminally to a linker ([…]) followed by the human IgG1 hinge and Fc portion. Ovalbumin (Sigma-Aldrich) was dissolved in sterile PBS and used in native state or denatured as indicated by incubation at 95°C buffer for 10 min.
For plate-based binding experiments, native or heat-denatured ovalbumin at indicated concentrations was bound to a flat-bottom 96-well plate (Corning Inc.) with coating buffer (BioLegend), washed with PBSt, blocked with 1% BSA in PBS, and subsequently incubated with IRE1α LD-Fc (10 μg/ml) in binding buffer composed of PBS with 20 mM Hepes, 100 mM KOAc, and 0.2% tween-20 for 2 h at room temperature. Plates were washed again with PBSt and incubated with an anti-human Fc HRP-conjugated antibody (ab977225; Abcam). Development was performed with 3,3′,5,5′-Tetramethylbenzidine solution and terminated with Stop solution (BioLegend). Readings were taken with a SpectraMax M2 spectrometer (Molecular Devices).

Entries after “also recorded” stand apart in the source; their conditions may differ.

B1: ovalbumin: classical protein antigen ovalbumin (Sigma-Aldrich) (protein)
chain: MGSIGAASMEFCFDVFKELKVHHANENIFYCPIAIMSALAMVYLGAKDSTRTQINKVVRFDKLPGFGDSIEAQCGTSVNVHSSLRDILNQITKPNDVYSFSLASRLYAEERYPILPEYLQCVKELYRGGLEPINFQTAADQARELINSWVESQTNGIIRNVLQPSSVDSQTAMVLVNAIVFKGLWEKAFKDEDTQAMPFRVTEQESKPVQMMYQIGLFRVASMASEKMKILELPFASGTMSMLVLLPDEVSGLEQLESIINFEKLTEWTSSNVMEERKIKVYLPRMKMEEKYNLTSVLMAMGITDVFSSSANLSGISSAESLKISQAVHAAHAEINEAGREVVGSAEAGVDAASVSEEFRADHPFLFCIKHIATNAVLFFGRCVSP
For the molecule B1, in assay [1] (4-h pulse, ovalbumin 500 μg/ml), the “time of peak IRE1α phosphorylation” value worked out at 2 h and the “time of peak XBP1s protein” value is 2 to 4 h. For the same molecule, in assay [1] (GM-CSF + IL-4 BMDCs, immunoblot for XBP1s/pIRE1α, in words), the IRE1α activation result is “concentration- and time-dependent activation of IRE1α; also recorded: much weaker IRE1α activation than did the potent pharmacological ER-stressor tunicamycin; also recorded: only IRE1α exhibited substantial activation”. In addition, in the assay on IRE1α LD-Fc, the “binding to immobilized IRE1α LD-Fc” value is given as “little binding over background”.
